Reference: patent US20250387474A1

Experiments:
[1] = molecular target: human IL-13Rα2 (human) (UniProt Q14627); test: SPR on immobilized ligands with receptors as flow analytes using MCK, top trace marked 250 nM
[2] = molecular target: human IL-13Rα1 (human) (UniProt P78552); test: SPR, construct captured on anti-human IgG (Fc) antibody on a CM5 chip, human receptor as analyte
[3] = molecular target: human IL-13Rα2 (human) (UniProt Q14627); test: as above
[4] = molecular target: human IL-13Rα1 (human) (UniProt P78552); test: SPR on immobilized ligands with receptors as flow analytes using MCK, top trace marked 1000 nM
[5] = molecular target: T1, human IL-2R beta (CD122) (human) (UniProt P14784); test: BLI (Octet)
T1 sequence (looked up): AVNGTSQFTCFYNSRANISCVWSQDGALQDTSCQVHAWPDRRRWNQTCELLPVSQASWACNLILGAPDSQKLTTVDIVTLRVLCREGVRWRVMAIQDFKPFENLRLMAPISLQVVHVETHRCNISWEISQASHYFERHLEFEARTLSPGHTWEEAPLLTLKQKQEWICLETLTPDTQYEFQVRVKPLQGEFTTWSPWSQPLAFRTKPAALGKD

human IL-13Rα1 (human), sequence (P78552 22-343 limits assumed): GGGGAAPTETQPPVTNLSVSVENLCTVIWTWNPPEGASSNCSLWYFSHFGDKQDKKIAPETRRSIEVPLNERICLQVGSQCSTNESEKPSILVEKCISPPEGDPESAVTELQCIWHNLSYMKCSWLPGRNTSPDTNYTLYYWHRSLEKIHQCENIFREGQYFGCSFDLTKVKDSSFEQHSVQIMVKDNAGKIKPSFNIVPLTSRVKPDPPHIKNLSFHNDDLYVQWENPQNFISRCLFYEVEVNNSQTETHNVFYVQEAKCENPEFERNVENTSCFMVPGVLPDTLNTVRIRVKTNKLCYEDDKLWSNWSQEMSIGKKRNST
human IL-13Rα2 (human), sequence (Q14627 27-343 limits assumed): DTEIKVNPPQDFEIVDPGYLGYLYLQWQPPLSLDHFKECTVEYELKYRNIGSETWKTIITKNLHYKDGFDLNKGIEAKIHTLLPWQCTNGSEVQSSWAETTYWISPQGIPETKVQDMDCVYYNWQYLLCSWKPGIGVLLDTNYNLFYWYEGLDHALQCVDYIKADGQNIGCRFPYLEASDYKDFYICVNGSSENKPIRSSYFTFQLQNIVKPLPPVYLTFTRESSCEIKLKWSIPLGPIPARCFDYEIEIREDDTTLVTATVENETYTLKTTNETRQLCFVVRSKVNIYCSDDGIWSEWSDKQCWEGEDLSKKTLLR

| Kd [1] [nM] | Kd [2] [nM] | Kd [3] [nM] | Kd [4] [nM] | Kd [5] [nM] | Substance |
| --- | --- | --- | --- | --- | --- |
| 0.69 | 237 | 0.6 | 202 | – | Fc-IL13 (wild-type IL-13 with Fc tag, comparator; format not stated) (Fc fusion) |
| – | – | – | – | 11 | MDNA11 (MDNA109FEAA-Albumin) |
| – | – | – | – | 7 | VivoTag800-MDNA11 |
